Starred links: 1 amine or outer side, 2 acyl side, 3 side chain; linkers in the order of their positions; H or OH if unused. Non-standard residues stand in square brackets, D forms with d. Groups on a side chain read outwards from the residue. No end group written: not given here. *: point of attachment. C20 diacid = O=C(O)CCCCCCCCCCCCCCCCCCC(=O)*; C18 diacid = O=C(O)CCCCCCCCCCCCCCCCC(=O)*; γGlu = O=C(O)[C@H](CCC(=O)[*:2])N[*:1]; αMeF = C[C@](N)(Cc1ccccc1)C(=O)O; AEEA = NCCOCCOCC(=O)O; Aib = CC(C)(N)C(=O)O
B1: Peptide 17 (peptide)
peptide: H[Aib]HGS[αMeF]TSDVSK[αMeF]LDSK([AEEA-AEEA-γGlu-C18 diacid])AARD[αMeF]VESIANT-NH2
modifications: N-terminus assumed
SMILES: CC[C@H](C)[C@H](NC(=O)[C@H](CO)NC(=O)[C@H](CCC(=O)O)NC(=O)[C@@H](NC(=O)[C@](C)(Cc1ccccc1)NC(=O)[C@H](CC(=O)O)NC(=O)[C@H](CCCNC(=N)N)NC(=O)[C@H](C)NC(=O)[C@H](C)NC(=O)[C@H](CCCCNC(=O)COCCOCCNC(=O)COCCOCCNC(=O)CC[C@H](NC(=O)CCCCCCCCCCCCCCCCC(=O)O)C(=O)O)NC(=O)[C@H](CO)NC(=O)[C@H](CC(=O)O)NC(=O)[C@H](CC(C)C)NC(=O)[C@](C)(Cc1ccccc1)NC(=O)[C@H](CCCCN)NC(=O)[C@H](CO)NC(=O)[C@@H](NC(=O)[C@H](CC(=O)O)NC(=O)[C@H](CO)NC(=O)[C@@H](NC(=O)[C@](C)(Cc1ccccc1)NC(=O)[C@H](CO)NC(=O)CNC(=O)[C@H](Cc1c[nH]cn1)NC(=O)C(C)(C)NC(=O)[C@@H](N)Cc1c[nH]cn1)[C@@H](C)O)C(C)C)C(C)C)C(=O)N[C@@H](C)C(=O)N[C@@H](CC(N)=O)C(=O)N[C@H](C(N)=O)[C@@H](C)O
B2: Peptide 16 (peptide)
peptide: H[Aib]HGS[αMeF]TSDVSK[αMeF]LDSK([AEEA-AEEA-γGlu-C18 diacid])AARD[αMeF]IA[Aib]IANT-NH2
modifications: N-terminus assumed
SMILES: CC[C@H](C)[C@H](NC(=O)C(C)(C)NC(=O)[C@H](C)NC(=O)[C@@H](NC(=O)[C@](C)(Cc1ccccc1)NC(=O)[C@H](CC(=O)O)NC(=O)[C@H](CCCNC(=N)N)NC(=O)[C@H](C)NC(=O)[C@H](C)NC(=O)[C@H](CCCCNC(=O)COCCOCCNC(=O)COCCOCCNC(=O)CC[C@H](NC(=O)CCCCCCCCCCCCCCCCC(=O)O)C(=O)O)NC(=O)[C@H](CO)NC(=O)[C@H](CC(=O)O)NC(=O)[C@H](CC(C)C)NC(=O)[C@](C)(Cc1ccccc1)NC(=O)[C@H](CCCCN)NC(=O)[C@H](CO)NC(=O)[C@@H](NC(=O)[C@H](CC(=O)O)NC(=O)[C@H](CO)NC(=O)[C@@H](NC(=O)[C@](C)(Cc1ccccc1)NC(=O)[C@H](CO)NC(=O)CNC(=O)[C@H](Cc1c[nH]cn1)NC(=O)C(C)(C)NC(=O)[C@@H](N)Cc1c[nH]cn1)[C@@H](C)O)C(C)C)[C@@H](C)CC)C(=O)N[C@@H](C)C(=O)N[C@@H](CC(N)=O)C(=O)N[C@H](C(N)=O)[C@@H](C)O
B3: Peptide 18 (peptide)
peptide: H[Aib]HGS[αMeF]TSDVSK[αMeF]LDSK([AEEA-AEEA-γGlu-C18 diacid])AARD[αMeF]VQSIANT-NH2
modifications: N-terminus assumed
SMILES: CC[C@H](C)[C@H](NC(=O)[C@H](CO)NC(=O)[C@H](CCC(N)=O)NC(=O)[C@@H](NC(=O)[C@](C)(Cc1ccccc1)NC(=O)[C@H](CC(=O)O)NC(=O)[C@H](CCCNC(=N)N)NC(=O)[C@H](C)NC(=O)[C@H](C)NC(=O)[C@H](CCCCNC(=O)COCCOCCNC(=O)COCCOCCNC(=O)CC[C@H](NC(=O)CCCCCCCCCCCCCCCCC(=O)O)C(=O)O)NC(=O)[C@H](CO)NC(=O)[C@H](CC(=O)O)NC(=O)[C@H](CC(C)C)NC(=O)[C@](C)(Cc1ccccc1)NC(=O)[C@H](CCCCN)NC(=O)[C@H](CO)NC(=O)[C@@H](NC(=O)[C@H](CC(=O)O)NC(=O)[C@H](CO)NC(=O)[C@@H](NC(=O)[C@](C)(Cc1ccccc1)NC(=O)[C@H](CO)NC(=O)CNC(=O)[C@H](Cc1c[nH]cn1)NC(=O)C(C)(C)NC(=O)[C@@H](N)Cc1c[nH]cn1)[C@@H](C)O)C(C)C)C(C)C)C(=O)N[C@@H](C)C(=O)N[C@@H](CC(N)=O)C(=O)N[C@H](C(N)=O)[C@@H](C)O
B4: Peptide 19 (peptide)
peptide: H[Aib]HGS[αMeF]TSDVSK[αMeF]LDSK([AEEA-AEEA-γGlu-γGlu-C18 diacid])AARD[αMeF]VQ[Aib]IANT-NH2
modifications: N-terminus assumed
SMILES: CC[C@H](C)[C@H](NC(=O)C(C)(C)NC(=O)[C@H](CCC(N)=O)NC(=O)[C@@H](NC(=O)[C@](C)(Cc1ccccc1)NC(=O)[C@H](CC(=O)O)NC(=O)[C@H](CCCNC(=N)N)NC(=O)[C@H](C)NC(=O)[C@H](C)NC(=O)[C@H](CCCCNC(=O)COCCOCCNC(=O)COCCOCCNC(=O)CC[C@H](NC(=O)CC[C@H](NC(=O)CCCCCCCCCCCCCCCCC(=O)O)C(=O)O)C(=O)O)NC(=O)[C@H](CO)NC(=O)[C@H](CC(=O)O)NC(=O)[C@H](CC(C)C)NC(=O)[C@](C)(Cc1ccccc1)NC(=O)[C@H](CCCCN)NC(=O)[C@H](CO)NC(=O)[C@@H](NC(=O)[C@H](CC(=O)O)NC(=O)[C@H](CO)NC(=O)[C@@H](NC(=O)[C@](C)(Cc1ccccc1)NC(=O)[C@H](CO)NC(=O)CNC(=O)[C@H](Cc1c[nH]cn1)NC(=O)C(C)(C)NC(=O)[C@@H](N)Cc1c[nH]cn1)[C@@H](C)O)C(C)C)C(C)C)C(=O)N[C@@H](C)C(=O)N[C@@H](CC(N)=O)C(=O)N[C@H](C(N)=O)[C@@H](C)O
B5: Peptide 22 (peptide)
peptide: H[Aib]HGS[αMeF]TSDVSK[αMeF]LDSK([AEEA-AEEA-γGlu-γGlu-C20 diacid])AAQD[αMeF]VESIANT-NH2
modifications: N-terminus assumed
SMILES: CC[C@H](C)[C@H](NC(=O)[C@H](CO)NC(=O)[C@H](CCC(=O)O)NC(=O)[C@@H](NC(=O)[C@](C)(Cc1ccccc1)NC(=O)[C@H](CC(=O)O)NC(=O)[C@H](CCC(N)=O)NC(=O)[C@H](C)NC(=O)[C@H](C)NC(=O)[C@H](CCCCNC(=O)COCCOCCNC(=O)COCCOCCNC(=O)CC[C@H](NC(=O)CC[C@H](NC(=O)CCCCCCCCCCCCCCCCCCC(=O)O)C(=O)O)C(=O)O)NC(=O)[C@H](CO)NC(=O)[C@H](CC(=O)O)NC(=O)[C@H](CC(C)C)NC(=O)[C@](C)(Cc1ccccc1)NC(=O)[C@H](CCCCN)NC(=O)[C@H](CO)NC(=O)[C@@H](NC(=O)[C@H](CC(=O)O)NC(=O)[C@H](CO)NC(=O)[C@@H](NC(=O)[C@](C)(Cc1ccccc1)NC(=O)[C@H](CO)NC(=O)CNC(=O)[C@H](Cc1c[nH]cn1)NC(=O)C(C)(C)NC(=O)[C@@H](N)Cc1c[nH]cn1)[C@@H](C)O)C(C)C)C(C)C)C(=O)N[C@@H](C)C(=O)N[C@@H](CC(N)=O)C(=O)N[C@H](C(N)=O)[C@@H](C)O
B6: Peptide 24 (peptide)
peptide: H[Aib]HGS[αMeF]TSDVSK[αMeF]LDSK([AEEA-AEEA-γGlu-C18 diacid])AAQD[αMeF]VQ[Aib]IANT-NH2
modifications: N-terminus assumed
SMILES: CC[C@H](C)[C@H](NC(=O)C(C)(C)NC(=O)[C@H](CCC(N)=O)NC(=O)[C@@H](NC(=O)[C@](C)(Cc1ccccc1)NC(=O)[C@H](CC(=O)O)NC(=O)[C@H](CCC(N)=O)NC(=O)[C@H](C)NC(=O)[C@H](C)NC(=O)[C@H](CCCCNC(=O)COCCOCCNC(=O)COCCOCCNC(=O)CC[C@H](NC(=O)CCCCCCCCCCCCCCCCC(=O)O)C(=O)O)NC(=O)[C@H](CO)NC(=O)[C@H](CC(=O)O)NC(=O)[C@H](CC(C)C)NC(=O)[C@](C)(Cc1ccccc1)NC(=O)[C@H](CCCCN)NC(=O)[C@H](CO)NC(=O)[C@@H](NC(=O)[C@H](CC(=O)O)NC(=O)[C@H](CO)NC(=O)[C@@H](NC(=O)[C@](C)(Cc1ccccc1)NC(=O)[C@H](CO)NC(=O)CNC(=O)[C@H](Cc1c[nH]cn1)NC(=O)C(C)(C)NC(=O)[C@@H](N)Cc1c[nH]cn1)[C@@H](C)O)C(C)C)C(C)C)C(=O)N[C@@H](C)C(=O)N[C@@H](CC(N)=O)C(=O)N[C@H](C(N)=O)[C@@H](C)O
B7: Peptide 21 (peptide)
peptide: H[Aib]HGS[αMeF]TSDVSK[αMeF]LDSK([γGlu-C18 diacid])AAQD[αMeF]VESIANT-NH2
modifications: N-terminus assumed
SMILES: CC[C@H](C)[C@H](NC(=O)[C@H](CO)NC(=O)[C@H](CCC(=O)O)NC(=O)[C@@H](NC(=O)[C@](C)(Cc1ccccc1)NC(=O)[C@H](CC(=O)O)NC(=O)[C@H](CCC(N)=O)NC(=O)[C@H](C)NC(=O)[C@H](C)NC(=O)[C@H](CCCCNC(=O)CC[C@H](NC(=O)CCCCCCCCCCCCCCCCC(=O)O)C(=O)O)NC(=O)[C@H](CO)NC(=O)[C@H](CC(=O)O)NC(=O)[C@H](CC(C)C)NC(=O)[C@](C)(Cc1ccccc1)NC(=O)[C@H](CCCCN)NC(=O)[C@H](CO)NC(=O)[C@@H](NC(=O)[C@H](CC(=O)O)NC(=O)[C@H](CO)NC(=O)[C@@H](NC(=O)[C@](C)(Cc1ccccc1)NC(=O)[C@H](CO)NC(=O)CNC(=O)[C@H](Cc1c[nH]cn1)NC(=O)C(C)(C)NC(=O)[C@@H](N)Cc1c[nH]cn1)[C@@H](C)O)C(C)C)C(C)C)C(=O)N[C@@H](C)C(=O)N[C@@H](CC(N)=O)C(=O)N[C@H](C(N)=O)[C@@H](C)O
B8: Peptide 23 (peptide)
peptide: H[Aib]HGS[αMeF]TSDVSK[αMeF]LDSK([AEEA-AEEA-γGlu-C18 diacid])AAQD[αMeF]VESIANT-NH2
modifications: N-terminus assumed
SMILES: CC[C@H](C)[C@H](NC(=O)[C@H](CO)NC(=O)[C@H](CCC(=O)O)NC(=O)[C@@H](NC(=O)[C@](C)(Cc1ccccc1)NC(=O)[C@H](CC(=O)O)NC(=O)[C@H](CCC(N)=O)NC(=O)[C@H](C)NC(=O)[C@H](C)NC(=O)[C@H](CCCCNC(=O)COCCOCCNC(=O)COCCOCCNC(=O)CC[C@H](NC(=O)CCCCCCCCCCCCCCCCC(=O)O)C(=O)O)NC(=O)[C@H](CO)NC(=O)[C@H](CC(=O)O)NC(=O)[C@H](CC(C)C)NC(=O)[C@](C)(Cc1ccccc1)NC(=O)[C@H](CCCCN)NC(=O)[C@H](CO)NC(=O)[C@@H](NC(=O)[C@H](CC(=O)O)NC(=O)[C@H](CO)NC(=O)[C@@H](NC(=O)[C@](C)(Cc1ccccc1)NC(=O)[C@H](CO)NC(=O)CNC(=O)[C@H](Cc1c[nH]cn1)NC(=O)C(C)(C)NC(=O)[C@@H](N)Cc1c[nH]cn1)[C@@H](C)O)C(C)C)C(C)C)C(=O)N[C@@H](C)C(=O)N[C@@H](CC(N)=O)C(=O)N[C@H](C(N)=O)[C@@H](C)O

Target: human GLP-1 receptor (human, UniProt P43220)
Experiment: cell-based or functional assay

Row | Binder | cAMP production, hGLP-1R EC50 (pM)
1 | B1 | 45 pM
2 | B2 | 33 pM
3 | B3 | 20.5 pM
4 | B4 | 38.3 pM
5 | B5 | 1230 pM
6 | B6 | 82.8 pM
7 | B7 | 378 pM
8 | B8 | 266 pM

Target: human glucagon receptor (human, UniProt P47871)
Experiment: cell-based or functional assay

Row | Binder | cAMP production, hGluc-R EC50 (pM)
9 | B1 | 135 pM
10 | B2 | 105 pM
11 | B3 | 122 pM
12 | B4 | 133 pM
13 | B5 | 2720 pM
14 | B6 | 101 pM
15 | B7 | 68.8 pM
16 | B8 | 321 pM
